Data published in paper PMC9376091 (Scientific Reports, 2022).
“And” between values parts separate entries of the source, which are not always exact repeats. Equal values may be shown once.

Target: the molecule itself
Experiment: AUC

B1: homoserine acetyl transferase (HSAT, MetX, Rv3341) from M. tuberculosis, recombinant (His)6-MetX (enzyme)
chain: MTISDVPTQTLPAEGEIGLIDVGSLQLESGAVIDDVCIAVQRWGKLSPARDNVVVVLHALTGDSHITGPAGPGHPTPGWWDGVAGPGAPIDTTRWCAVATNVLGGCRGSTGPSSLARDGKPWGSRFPLISIRDQVQADVAALAALGITEVAAVVGGSMGGARALEWVVGYPDRVRAGLLLAVGARATADQIGTQTTQIAAIKADPDWQSGDYHETGRAPDAGLRLARRFAHLTYRGEIELDTRFANHNQGNEDPTAGGRYAVQSYLEHQGDKLLSRFDAGSYVILTEALNSHDVGRGRGGVSAALRACPVPVVVGGITSDRLYPLRLQQELADLLPGCAGLRVVESVYGHDGFLVETEAVGELIRQTLGLADREGACRR
stoichiometry N: 2 and 4
